Values belong to the substance of their own block, whether it stands above or below them.
Legend:
[1] = biological target: importin subunit alpha‐3 (KPNA4) ARM domain (UniProt O00629); test: FP competition against FITC-NCOR2 1307-1322 probe; conditions: reference: unphosphorylated peptide
[2] = biological target: MDM2 SWIB, cleaved from the His‐GST tag, for affinity measurements (human); test: fluorescence polarisation; competition: unlabelled peptide in serial dilution displaces a FITC-labelled probe peptide from the bait domain (master mix with protein at four times the KD of the probe, 10 nM probe, 2 mM DTT); 50 mM KPO4 or NaPO4 pH 7.5; triplicates; probe for KEAP1 Kelch: FITC-NFE2L1 228-243, other probes in Dataset EV6
[3] = biological target: FITC-labelled phospho-RAF1 255-264 probe peptide (FITC-QRSTpSTPNVH) (human); test: fluorescence polarisation; saturation: protein in serial dilution added to FITC-labelled probe peptide (master mix with 10 nM probe and 2 mM DTT), 50 mM KPO4 or NaPO4 pH 7.5; fitted to a quadratic equation
[4] = biological target: KPNA4 ARM (importin subunit alpha-3, armadillo repeat domain) (human) (UniProt O00629); test: fluorescence polarisation; competition: unlabelled peptide in serial dilution against KPNA4 ARM (master mix at four times the KD) with the probe FITC-NCOR2(1307-1322), probe of the minor pocket; 50 mM KPO4 pH 7.5; Ki calculated from IC50
[5] = biological target: KPNA4 ARM (importin subunit alpha-3, armadillo repeat domain) (human) (UniProt O00629); test: fluorescence polarisation; competition: unlabelled peptide in serial dilution against KPNA4 ARM (master mix at four times the KD) with the probe FITC-Myc(320-328), probe of the major pocket; 50 mM KPO4 pH 7.5; Ki calculated from IC50
[6] = biological target: FITC-labelled Myc 320-328 probe peptide (FITC-…) (human); test: fluorescence polarisation; saturation: protein in serial dilution added to FITC-labelled probe peptide (master mix with 10 nM probe and 2 mM DTT), 50 mM KPO4 or NaPO4 pH 7.5; fitted to a quadratic equation
[7] = biological target: FITC-labelled NCOR2 1307-1322 probe peptide (FITC-…) (human); test: as above

- binding against the reference ([1]; sites Y1247): same
Substance: NCOR1 class III NLS peptide (from UniProt O75376) pY1247 peptide

- binding against the reference ([1]; sites S1246): weaker
Substance: NCOR1 class III NLS peptide (from UniProt O75376) pS1246 peptide

- Ki [2]: 3300 nM
Substance: NUMB_(615–630) peptide, synthetic (from UniProt P49757 615-630)

- Kd [3]: 524000 nM
Substance: 14-3-3 protein sigma (SFN 14-3-3) (from UniProt P31947 1-248) (domain or fragment)

- IC50 [4]: 1300 nM
Substance: ZNF532 1139-1154 peptide

- binding against the reference ([1]; sites S1242): same
Substance: NCOR1 class III NLS peptide (from UniProt O75376) pS1242 peptide

- IC50 [5]: 260 nM
Substance: SPRTN 400-416 peptide

- Kd [6]: 30 nM
- Kd [7]: 228 nM
Substance: KPNA4 ARM domain, MBP-tagged (from UniProt O00629 1-521) (domain or fragment)

— article PMC8769072, “Proteome‐scale mapping of binding sites in the unstructured regions of the human proteome” (Molecular Systems Biology, 2022)
